{
  "source": "patent US20250109201A1",
  "about": "(AGENUS, published 2025)",
  "binders": {"B1": {"name": "15G8 (Reference antibody) (antibody, V domains shown)", "VH": "DVQLQGSGPGLVKPSETLSLTCSVTGYSITSGYYWNWIRQFPGKKLEWMGYISYDGSNNYNPSLKNRITISRDTSKNQFSLKLNSVTAADTATYYCAHGYSYYYAMDAWGQGTSVTVSS", "VL": "DIQMTQSPSSLSASVGDRVTITCRTSQDISNYLNWYQQKPGKAVKLLISYTSRLHSGVPSRFSGSGSGTDYTLTISSLQPEDFATYYCQQGNTLPTFGQGTKLEIK"}},
  "key": {"[1]": {"biological_target": "T1, recombinant human LILRA2/ILT1 (R&D Systems 9040-T4-050) (human, UniProt Q8N149 24-449)", "T1 construct": "Bought", "T1 sequence (Q8N149 24-449 limits assumed)": "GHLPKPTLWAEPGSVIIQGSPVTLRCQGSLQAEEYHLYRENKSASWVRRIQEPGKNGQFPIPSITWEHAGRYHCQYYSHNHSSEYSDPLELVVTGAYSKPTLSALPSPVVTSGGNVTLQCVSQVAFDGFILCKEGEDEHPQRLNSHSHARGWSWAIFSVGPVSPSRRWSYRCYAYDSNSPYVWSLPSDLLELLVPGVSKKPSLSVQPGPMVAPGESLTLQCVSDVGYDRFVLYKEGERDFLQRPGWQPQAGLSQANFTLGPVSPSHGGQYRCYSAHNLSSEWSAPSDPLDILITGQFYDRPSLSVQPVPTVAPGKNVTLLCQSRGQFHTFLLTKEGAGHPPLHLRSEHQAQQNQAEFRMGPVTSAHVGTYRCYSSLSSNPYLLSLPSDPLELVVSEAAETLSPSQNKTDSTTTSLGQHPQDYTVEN", "assay": "SPR", "text": "(§1) Irrelevant antibody VRC01 IgG1 N297A was used as a negative isotype control."}, "[2]": {"biological_target": "T2, recombinant human LILRB4/ILT3 (Sino Biological 16742-H08H) (human, UniProt Q8NHJ6 22-259)", "T2 construct": "Bought", "assay": "SPR", "text": "as §1"}, "[3]": {"biological_target": "T3, recombinant human LILRA4/ILT7 (Sino Biological 16058-H08H-50) (human, UniProt P59901 24-446)", "T3 construct": "Bought", "T3 sequence (P59901 24-446 limits assumed)": "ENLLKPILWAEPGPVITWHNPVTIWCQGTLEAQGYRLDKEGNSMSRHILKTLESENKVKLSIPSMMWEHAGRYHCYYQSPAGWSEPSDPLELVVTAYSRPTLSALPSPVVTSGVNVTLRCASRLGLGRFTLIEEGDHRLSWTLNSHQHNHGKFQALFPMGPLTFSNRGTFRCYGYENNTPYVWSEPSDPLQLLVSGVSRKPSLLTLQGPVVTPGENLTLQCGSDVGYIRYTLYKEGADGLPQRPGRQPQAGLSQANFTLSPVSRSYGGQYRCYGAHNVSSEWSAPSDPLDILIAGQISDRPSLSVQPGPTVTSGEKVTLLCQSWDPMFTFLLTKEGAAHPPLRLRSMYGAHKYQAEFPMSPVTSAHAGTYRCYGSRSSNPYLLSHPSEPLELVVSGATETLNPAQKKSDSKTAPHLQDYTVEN", "assay": "SPR", "text": "as §1"}, "[4]": {"biological_target": "T4, recombinant human LILRB3/ILT5 (R&D Systems 9159-T5-050) (human, UniProt O75022 24-443)", "T4 construct": "Bought", "assay": "SPR", "text": "as §1"}, "[5]": {"biological_target": "T5, recombinant human LILRB5/LIR-8 (Sino Biological 17221-H08H-100) (human, UniProt O75023 24-458)", "T5 construct": "Bought", "T5 sequence (O75023 24-458 limits assumed)": "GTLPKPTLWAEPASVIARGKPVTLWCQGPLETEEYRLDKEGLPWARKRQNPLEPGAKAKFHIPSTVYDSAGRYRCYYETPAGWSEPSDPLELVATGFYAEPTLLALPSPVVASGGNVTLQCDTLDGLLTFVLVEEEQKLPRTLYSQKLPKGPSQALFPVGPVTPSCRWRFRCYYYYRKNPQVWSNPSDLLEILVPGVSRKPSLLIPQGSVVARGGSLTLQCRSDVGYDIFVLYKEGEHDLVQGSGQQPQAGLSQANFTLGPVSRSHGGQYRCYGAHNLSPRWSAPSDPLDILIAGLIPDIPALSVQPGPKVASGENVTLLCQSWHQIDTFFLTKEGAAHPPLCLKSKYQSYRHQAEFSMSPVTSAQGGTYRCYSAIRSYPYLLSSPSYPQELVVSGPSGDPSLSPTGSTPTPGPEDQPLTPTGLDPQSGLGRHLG", "assay": "SPR", "text": "as §1"}, "[6]": {"biological_target": "T6, recombinant human LILRA6/ILT8 (Sino Biological 29813-H08H-50) (human, UniProt Q6PI73 24-447)", "T6 construct": "Bought", "T6 sequence (Q6PI73 24-447 limits assumed)": "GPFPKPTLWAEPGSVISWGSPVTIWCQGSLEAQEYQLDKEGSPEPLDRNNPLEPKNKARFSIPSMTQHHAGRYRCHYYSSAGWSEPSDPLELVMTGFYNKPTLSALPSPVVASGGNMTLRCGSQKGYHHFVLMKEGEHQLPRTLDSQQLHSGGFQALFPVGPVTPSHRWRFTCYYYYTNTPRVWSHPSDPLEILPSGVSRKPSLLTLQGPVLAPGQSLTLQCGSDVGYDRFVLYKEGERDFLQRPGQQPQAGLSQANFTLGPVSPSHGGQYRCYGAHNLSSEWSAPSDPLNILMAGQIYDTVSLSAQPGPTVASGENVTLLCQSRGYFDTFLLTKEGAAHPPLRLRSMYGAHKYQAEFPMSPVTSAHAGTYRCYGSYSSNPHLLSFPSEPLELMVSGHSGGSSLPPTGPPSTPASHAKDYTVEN", "assay": "SPR", "text": "as §1"}, "[7]": {"biological_target": "T7, recombinant human LILRA5/ILT11 (Sino Biological 16059-H08H-100) (human, UniProt A6NI73 42-268)", "T7 construct": "Bought", "T7 sequence (A6NI73 42-268 limits assumed)": "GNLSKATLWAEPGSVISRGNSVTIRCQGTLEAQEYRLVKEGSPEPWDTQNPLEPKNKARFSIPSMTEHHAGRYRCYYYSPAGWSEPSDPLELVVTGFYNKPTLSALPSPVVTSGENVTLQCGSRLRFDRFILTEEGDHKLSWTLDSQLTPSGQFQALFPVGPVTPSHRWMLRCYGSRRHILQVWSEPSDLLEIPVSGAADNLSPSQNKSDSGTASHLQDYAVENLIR", "assay": "SPR", "text": "as §1"}, "[8]": {"biological_target": "T8, human ILT2 extracellular and transmembrane domains expressed on CHO cells (human, UniProt Q8NHL6 24-482, limits assumed)", "T8 construct": "domain: extracellular and transmembrane domains; which one is told under assay; also called CHO cells expressing human ILT2 (relatively low or relatively high level); CHO-ILT2 cells", "T8 sequence (Q8NHL6 24-482 limits assumed)": "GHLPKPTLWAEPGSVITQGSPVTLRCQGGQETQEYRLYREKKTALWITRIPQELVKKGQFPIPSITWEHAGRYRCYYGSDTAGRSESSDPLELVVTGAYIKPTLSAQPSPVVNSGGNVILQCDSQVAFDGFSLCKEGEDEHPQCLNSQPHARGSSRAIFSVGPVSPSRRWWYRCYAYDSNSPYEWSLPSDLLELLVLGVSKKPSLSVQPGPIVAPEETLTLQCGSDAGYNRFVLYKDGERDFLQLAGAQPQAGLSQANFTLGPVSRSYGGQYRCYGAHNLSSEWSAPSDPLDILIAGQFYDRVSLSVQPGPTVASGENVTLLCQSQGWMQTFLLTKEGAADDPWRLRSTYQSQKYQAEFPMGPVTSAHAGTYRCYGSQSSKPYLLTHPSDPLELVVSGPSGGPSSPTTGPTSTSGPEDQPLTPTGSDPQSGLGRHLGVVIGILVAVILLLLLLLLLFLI", "assay": "flow cytometry, CHO cells with high human ILT2", "procedure": "(§2) CHO cells expressing relatively high and low levels of human ILT2 were seeded in a 96-well U-bottom tissue culture plate at a density of 2×10⁵ cells per well in 50 μL of PBS supplemented with 0.5% BSA, 1 mM EDTA and 0.05% sodium azide (FACS Buffer). The cells were incubated for 30 minutes at 4° C. with 50 μL of a series dilution of anti-ILT2 antibodies or isotype control (VRC01 IgG₄) at concentrations from 10 μg/mL to 0.2 ng/mL in FACS Buffer.\n(§3) For antibody staining, the cells were washed three times with cold FACS Buffer and resuspended in FACS Buffer containing a FITC-conjugated mouse anti-human IgG₄ antibody (Southern Biotech/9190-02) at a final concentration of […]. After a 30-minute incubation in the dark at 4° C., the cells were washed three times and analyzed as above."}, "[9]": {"biological_target": "T8, human ILT2 extracellular and …", "assay": "flow cytometry, CHO cells with low human ILT2", "procedure": "as §2, §3"}, "[10]": {"biological_target": "T9, ECD-His tagged human ILT2 haplotype PE01 (human, UniProt Q8NHL6 24-458)", "T9 construct": "also called Human ILT2 PE01 ECD; LILRB1/ILT2 PE01; not shown: His tag", "T9 sequence (Q8NHL6 24-458)": "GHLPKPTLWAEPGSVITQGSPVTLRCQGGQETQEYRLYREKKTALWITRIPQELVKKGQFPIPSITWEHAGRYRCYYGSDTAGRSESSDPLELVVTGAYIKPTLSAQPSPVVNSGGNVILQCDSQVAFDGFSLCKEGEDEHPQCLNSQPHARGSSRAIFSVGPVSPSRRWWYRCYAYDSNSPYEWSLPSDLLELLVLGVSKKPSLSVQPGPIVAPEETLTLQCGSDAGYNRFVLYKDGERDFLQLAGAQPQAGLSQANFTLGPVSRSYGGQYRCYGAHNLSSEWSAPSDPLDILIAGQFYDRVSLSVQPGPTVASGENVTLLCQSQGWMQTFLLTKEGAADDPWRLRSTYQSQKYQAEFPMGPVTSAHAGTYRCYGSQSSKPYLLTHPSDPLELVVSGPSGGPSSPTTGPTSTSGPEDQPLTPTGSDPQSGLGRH", "assay": "SPR, LILRA and LILRB family panel", "text": "as §1"}, "[11]": {"biological_target": "T10, recombinant human LILRA1/LIR-6 (Sino Biological 17220-H08H-100) (human, UniProt O75019 17-461)", "T10 construct": "Bought", "T10 sequence (O75019 17-461 limits assumed)": "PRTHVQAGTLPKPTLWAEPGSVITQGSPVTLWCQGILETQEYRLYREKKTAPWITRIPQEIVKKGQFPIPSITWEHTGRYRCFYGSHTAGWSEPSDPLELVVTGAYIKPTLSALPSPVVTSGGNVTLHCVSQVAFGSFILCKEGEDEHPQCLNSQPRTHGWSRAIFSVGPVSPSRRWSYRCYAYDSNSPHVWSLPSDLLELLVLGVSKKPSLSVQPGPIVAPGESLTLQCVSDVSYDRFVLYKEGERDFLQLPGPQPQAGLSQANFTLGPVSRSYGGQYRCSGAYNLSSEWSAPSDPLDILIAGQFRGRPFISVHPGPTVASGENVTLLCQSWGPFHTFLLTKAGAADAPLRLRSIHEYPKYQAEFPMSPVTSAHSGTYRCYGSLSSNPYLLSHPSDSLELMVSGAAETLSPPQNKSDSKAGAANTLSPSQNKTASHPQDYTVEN", "assay": "SPR, LILRA and LILRB family panel", "text": "as §1"}, "[12]": {"biological_target": "T11, recombinant human LILRA3/ILT6 (Sino Biological 13549-H08H-100) (human, UniProt Q8N6C8 24-439)", "T11 construct": "Bought", "T11 sequence (Q8N6C8 24-439 limits assumed)": "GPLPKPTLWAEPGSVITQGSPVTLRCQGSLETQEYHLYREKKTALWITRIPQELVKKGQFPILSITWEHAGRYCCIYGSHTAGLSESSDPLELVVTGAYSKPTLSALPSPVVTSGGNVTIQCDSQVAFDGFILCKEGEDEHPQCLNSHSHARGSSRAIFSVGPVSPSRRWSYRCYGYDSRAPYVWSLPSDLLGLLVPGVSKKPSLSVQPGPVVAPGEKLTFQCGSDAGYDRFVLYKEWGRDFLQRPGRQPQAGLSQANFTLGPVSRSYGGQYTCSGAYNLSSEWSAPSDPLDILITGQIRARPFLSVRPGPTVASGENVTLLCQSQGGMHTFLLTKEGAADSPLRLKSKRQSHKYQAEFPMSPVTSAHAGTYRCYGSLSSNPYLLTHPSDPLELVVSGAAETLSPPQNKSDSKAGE", "assay": "SPR, LILRA and LILRB family panel", "text": "as §1"}, "[13]": {"biological_target": "full-length ILT2 expressed on Jurkat cells (human, UniProt Q8NHL6 24-650)", "sequence (Q8NHL6 24-650)": "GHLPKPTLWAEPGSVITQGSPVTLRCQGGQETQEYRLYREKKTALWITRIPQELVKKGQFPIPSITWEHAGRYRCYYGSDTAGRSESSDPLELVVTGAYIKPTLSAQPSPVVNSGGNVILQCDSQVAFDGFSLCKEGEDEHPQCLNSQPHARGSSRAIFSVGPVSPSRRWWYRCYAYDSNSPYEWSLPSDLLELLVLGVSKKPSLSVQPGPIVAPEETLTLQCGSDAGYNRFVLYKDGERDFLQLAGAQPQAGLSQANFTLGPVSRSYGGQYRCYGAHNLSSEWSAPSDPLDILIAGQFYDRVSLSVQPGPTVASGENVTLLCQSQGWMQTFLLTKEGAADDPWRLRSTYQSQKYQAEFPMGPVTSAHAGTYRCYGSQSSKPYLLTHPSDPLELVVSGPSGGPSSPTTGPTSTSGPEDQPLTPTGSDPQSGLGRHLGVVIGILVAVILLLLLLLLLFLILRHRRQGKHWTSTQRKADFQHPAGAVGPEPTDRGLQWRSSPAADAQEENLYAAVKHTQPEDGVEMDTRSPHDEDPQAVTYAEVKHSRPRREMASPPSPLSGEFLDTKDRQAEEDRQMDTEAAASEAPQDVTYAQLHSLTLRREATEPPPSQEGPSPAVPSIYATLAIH", "assay": "cell-based or functional assay"}},
  "data": [
    {"binder": "B1", "values": [
      {"measurement": "binding result", "setting": "[1]", "value": "no binding"},
      {"measurement": "binding result", "setting": "[2]", "value": "no binding"},
      {"measurement": "binding result", "setting": "[3]", "value": "no binding"},
      {"measurement": "binding result", "setting": "[4]", "value": "no binding"},
      {"measurement": "binding result", "setting": "[5]", "value": "no binding"},
      {"measurement": "binding result", "setting": "[6]", "value": "no binding"},
      {"measurement": "binding result", "setting": "[7]", "value": "no binding"},
      {"measurement": "EC50", "setting": "[8]", "value": 0.155, "unit": "µg/mL"},
      {"measurement": "EC50", "setting": "[9]", "value": 0.019, "unit": "µg/mL"},
      {"measurement": "Kd", "setting": "[10]", "value": 10, "unit": "nM"},
      {"measurement": "Kd", "setting": "[11]", "value": 21, "unit": "nM"},
      {"measurement": "Kd", "setting": "[12]", "value": 24, "unit": "nM"},
      {"measurement": "FcγRIIIa-NFAT luciferase signaling, EC50", "setting": "[13]", "value": 0.43, "unit": "µg/mL"}
    ]}
  ]
}
